Measured values from patent US20130217572A1, “SPECIFIC DELIVERY OF AGROCHEMICALS” (VRIJE UNIVERSITEIT BRUSSEL, priority 2010, published 2013).
Each block holds one molecule with its values, some of them ahead of it.

Key:
potato lectin (Sigma) [1] = molecular target: T1, potato lectin (Sigma) (potato, UniProt Q9S8M0 23-323); test: microcapsule retention; L: amine capsules, BS3 two-step, 0.1 ug VHH/cm2; potato lectin coat 100 ug/ml; 100% coverage
T1 construct: Bought glycoprotein, coated on ELISA plates
T1 sequence (looked up): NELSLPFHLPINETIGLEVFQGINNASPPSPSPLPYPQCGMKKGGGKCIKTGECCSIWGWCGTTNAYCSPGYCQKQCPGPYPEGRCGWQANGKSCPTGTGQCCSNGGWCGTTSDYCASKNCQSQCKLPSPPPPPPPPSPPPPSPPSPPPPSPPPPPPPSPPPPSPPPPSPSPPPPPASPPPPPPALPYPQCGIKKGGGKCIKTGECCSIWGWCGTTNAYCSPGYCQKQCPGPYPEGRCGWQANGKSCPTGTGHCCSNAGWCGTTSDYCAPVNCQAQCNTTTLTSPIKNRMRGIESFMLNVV

potato lectin (Sigma) [2] = molecular target: T1, potato lectin (Sigma); test: microcapsule retention; D: carboxyl capsules, EDC/Sulfo-NHS, 0.1 ug VHH/cm2; potato lectin coat 10 ug/ml; 100% coverage
potato lectin (Sigma) [3] = molecular target: T1, potato lectin (Sigma); test: microcapsule retention; L: amine capsules, BS3 two-step, 0.1 ug VHH/cm2; potato lectin coat 1 ug/ml; 100% coverage
potato lectin (Sigma) [4] = molecular target: T1, potato lectin (Sigma); test: microcapsule retention; D: carboxyl capsules, EDC/Sulfo-NHS, 0.1 ug VHH/cm2; potato lectin coat 100 ug/ml; 100% coverage
potato leaf discs = test: VHH binding at different pH; parameters: species or system potato (variety Désirée); conditions: 5 μg/ml; whole range tested from pH 2 to pH 11
Description: In order to test applicability of VHH as binders for greenhouse or field applications where binding supposedly may occur at pH-values, deviating strongly from physiological conditions in which antibodies naturally bind their targets, a leaf dip VHH binding experiment was carried out in a series of solutions with different pH. The following solutions were prepared: 50 mM glycine pH 2.0, 50 mM sodium acetate pH 4.0, 50 mm sodium carbonate pH 9.6, and 10 mM sodium hydroxide pH 11.0. ø 8 mm potato leaf discs (variety Désirée) were cut using a puncher tool. The leaf discs were first equilibrated to the different pH by washing three times with solutions at different pH. Hexahistidine-tagged VHH were diluted to 5 μg/ml in solutions with different pH, added to the corresponding equilibrated leaf discs, and binding of VHH was allowed for 1 hour. After incubation with VHH, leaf discs were washed three times with solutions at the corresponding different pH. After that, all were washed two times with PBS to equilibrate leaf discs to PBS. Bound VHH were detected by incubation with monoclonal mouse anti-histidine antibodies directly conjugated with Alexa-488 fluorescent dye (Abd Serotec) in PBS for 1 hour. Unbound anti-histidine antibodies were removed by washing five times with PBS. Leaf discs were analyzed for bound VHH with microscopy.

potato lectin = molecular target: T2, potato lectin (Solanum tuberosum, UniProt Q9S8M0); test: ELISA-like assay of VHH-coupled microcapsules on antigen-coated wells; conditions: microcapsule binding assays
T2 sequence (Q9S8M0 23-323): T1 sequence (looked up)
Description: An ELISA-like assay setup was used to evaluate the interaction of VHH-coupled microcapsules to antigen-containing surfaces. ELISA plates (Maxisorp (Thermo Scientific Nunc) or high bind half area microplates (Greiner Bio-One)) were coated with gum arabic or potato lectin. Coatings were performed overnight with 100 μg/ml gum arabic or potato lectin in PBS. Control wells included blank wells or wells coated with unrelated antigens. Plates were washed three times with PBS with 0.05%-TWEEN®-20 and blocked with 5% skimmed milk in PBS for 1 to 2 hours. VHH-coupled lambda cyhalothrin-containing or Uvitex-containing microcapsules were diluted to appropriate densities in 1% skimmed milk in PBS with 0.05%-TWEEN®-20. Microcapsules were added to the antigen-coated or control wells and allowed to bind for 1 hour. Unbound microcapsules were removed by washing five times with PBS with 0.05%-TWEEN®-20. The bottoms of ELISA plate wells were analyzed for bound microcapsules on a macrozoom microscope system (Nikon). Microcapsules were counted using Volocity image analysis software (Perkin Elmer). A DAPI filter was used to visualize Uvitex microcapsules. White LED illumination and bright field pictures were used for lambda cyhalothrin microcapsules. Controls for lambda cyhalothrin-containing or Uvitex-containing microcapsules included blank microcapsules and microcapsules to which unrelated VHH were coupled.

unrelated antigens [5] = test: VHH-coupled Uvitex microcapsules retained on wells coated with unrelated antigen; 20% surface coverage
unrelated antigens [6] = test: VHH-coupled Uvitex microcapsules retained on wells coated with unrelated antigen; 4% surface coverage
potato lectin (Sigma) [7] = molecular target: T1, potato lectin (Sigma); test: ELISA, potato lectin coated at 100 ug/ml, VHH at 3 ug/ml, anti-histidine detection
Description: ELISA plates (Maxisorp, Nunc) coated with 100 μl per well 100 μg/ml potato lectin (Sigma) in PBS were coated at 4° C. overnight and coating was continued at room temperature for 1 hour on the next day. Plates were washed three times with PBS/0.05%-TWEEN®-20 and blocked with 5% skimmed milk in PBS for 1 hour. VHH (3 μg/ml) were transferred to the potato lectin-coated plates and VHH antibody fragments were allowed to bind for 1 hour at room temperature. Bound VHH were detected with sequential incubations with monoclonal mouse anti-histidine antibodies (Abd Serotec) and rabbit anti-mouse IgG whole molecule antibodies conjugated with alkaline phosphatase (RaM/AP) (Sigma) in 1% MPBS/0.05%-TWEEN®-20. Unbound antibodies were removed by washing three times with PBS/0.05%-TWEEN®-20 after each antibody incubation. The plates were washed an additional two times with PBS and 100 μl pNPP disodium hexahydrate substrate (Sigma) was added to each well and the absorbance at 405 nm was measured (see Table 2).

unrelated antigens [8] = test: VHH-coupled Uvitex OB microcapsules retained on wells coated with unrelated antigen; 100% surface coverage
unrelated antigens [9] = test: VHH-coupled lambda-cyhalothrin microcapsules retained on wells coated with unrelated antigen; 4% surface coverage
unrelated antigens [10] = test: VHH-coupled Uvitex microcapsules retained on wells coated with unrelated antigen; 100% surface coverage

microcapsule counts (microcapsules) (potato lectin (Sigma) [1]): 1110
microcapsule counts (microcapsules) (potato lectin (Sigma) [2]): 475
microcapsule counts (microcapsules) (potato lectin (Sigma) [3]): 860
microcapsule counts (microcapsules) (potato lectin (Sigma) [4]): 515
Molecule: Control VHH

B1: VHH 3E6 (VHH)
VHH: QVQLQESGGGLVQPGGTLSLSCAASGFNVRWYGMGWFRQAPGKEREGVACISALQETTAYADSVKGRFTLSRDNPKNTLSLQMNNLQPEDTGVYYCATTDCDDSSRMTYTSYLGQGTQVTVSS
notes: also called Monovalent VHH 3E6
binding to leaf discs at different pH (potato leaf discs): showed detectable binding
binding to antigen-coated surfaces when coupled to a microcapsule (potato lectin): capable of binding specifically to antigen-coated surfaces
binding to surfaces with unrelated antigens when coupled to a microcapsule (potato lectin): No significant binding
surface area of bound microcapsules (unrelated antigens [5]): 27.7
surface area of bound microcapsules (unrelated antigens [6]): 5.01
absorbance at 405 nm (potato lectin (Sigma) [7]): 4
area of bound microcapsules (unrelated antigens [8]): 84.5
counts of bound microcapsules (microcapsules) (unrelated antigens [9]): 386
surface area of bound microcapsules (unrelated antigens [10]): 69.5
